# According to FireProtDB (doi:10.1021/bi201411c):
# Conditions: Nostoc ellipsosporum, pH 6, 25 °C, GdnHCl, sodium phosphate 20 mM, transition: 2, reversible: yes(90%), whole UniProt chain shown
protein,measurement,setting,value
"Cyanovirin-N wild type, P81180 (protein) LGKFSQTCYNSAIQGSVLTSTCERTNGGYNTSSIDLNSVIENVDGSLKWQPSNFIETCRNTQLAGSSELAAECKTRAQQFVSTKINLDDHIANIDGTLKYE",denaturant m value,CD,2 kcal/mol/M
same,denaturant midpoint (higher = more stable),CD,2.5 M
same,denaturant m value,fluorescence,1.9 kcal/mol/M
same,denaturant midpoint (higher = more stable),fluorescence,2.6 M
